One substance from paper PMC12153317 can be followed below.

As usually defined, the Kd is the equilibrium constant for the complex coming apart. A low value points to tighter binding.

This assay concerns the target specific HAs not engaged in ELISA (soluble HA ectodomains) (influenza virus). The assay is described as follows: ELISA.

Substance CR8071 showed a Kd of 0.35 nM.
